Test results reported in US20160237160A1 (Bayer, published 2016).

T1: CD95 (TNFRSF6) Fc fusion protein (Human, UniProt P25445 26-173)
T1 construct: extracellular domain; bought
T1 sequence (looked up): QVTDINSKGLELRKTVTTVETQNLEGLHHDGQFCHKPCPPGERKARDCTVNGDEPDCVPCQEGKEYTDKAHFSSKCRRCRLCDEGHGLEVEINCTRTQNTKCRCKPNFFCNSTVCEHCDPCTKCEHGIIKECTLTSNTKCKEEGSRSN

T2: OX40 (TNFRSF4) Fc fusion protein (Human, UniProt P43489 29-214)
T2 construct: extracellular domain; bought
T2 sequence (looked up): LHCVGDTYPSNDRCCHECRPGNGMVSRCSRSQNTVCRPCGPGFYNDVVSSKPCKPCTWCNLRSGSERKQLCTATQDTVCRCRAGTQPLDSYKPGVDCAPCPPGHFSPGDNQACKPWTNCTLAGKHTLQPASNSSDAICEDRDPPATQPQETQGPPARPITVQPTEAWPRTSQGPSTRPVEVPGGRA

T3: TPP-1984 (hTNFRSF12Aaa28-68-CT-His) (human)
T3 construct: monomeric ectodomain with HIS6 tag; also called TWEAKR(28-68)-HIS; C-terminally truncated TWEAKR ectodomain
T3 chain: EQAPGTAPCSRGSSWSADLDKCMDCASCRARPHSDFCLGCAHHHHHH


Key:
[1] = target: T4, TWEAKR (TNFRSF12A, FN14), human, on tumor cell lines (human, UniProt Q9NP84 28-129); test: cell-based or functional assay
[2] = target: T4, TWEAKR (TNFRSF12A, FN14), human, on …; test: cell-based or functional assay; remark: listed apart in the source
[3] = target: T4, TWEAKR (TNFRSF12A, FN14), human, on …; test: FACS, A375 cells, 10 ug/ml
[4] = target: T4, TWEAKR (TNFRSF12A, FN14), human, on …; test: FACS, HT29 cells, 10 ug/ml
[5] = target: T4, TWEAKR (TNFRSF12A, FN14), human, on …; test: FACS, WiDr cells, 10 ug/ml
Procedure: (§1) To determine the binding characteristics of the anti-TWEAKR antibodies on mouse and human cancer cell lines, binding was tested by flow cytometry to a panel of cell lines. […] Cells were suspended at approximately 10⁵ cells/well in FACS buffer (PBS without Ca/Mg, containing 3% FCS, Biochrom). Cells were centrifuged (250 g, 5 min, 4° C.) and supernatant discarded. Cells were resuspended in dilutions of the antibodies of interest (10 μg/ml in 80 μl if not indicated otherwise) in FACS buffer, and incubated on ice for 1 h. […] After incubation for 1 h on ice cells were again washed with cold FACS buffer, resuspended in 1000 FACS buffer and analyzed by flow cytometry using a FACS-Array (BD Biosciences). Results are calculated as Geo Mean of fluorescence detected by the antibody of interest subtracted by background fluorescence as measured by detection with the secondary antibody alone. Values are scored according to the following system: Geo Mean−Geo Mean of secondary antibody alone >10: +, >100: ++, >1000: +++, 10000: ++++, close to category border in ( ).

[6] = target: T4, TWEAKR (TNFRSF12A, FN14), human, on …; test: FACS, 786-O cells, 10 ug/ml
Procedure: as §1

[7] = target: T4, TWEAKR (TNFRSF12A, FN14), human, on …; test: FACS, SKOV-3 cells, 10 ug/ml
Procedure: as §1

[8] = target: T4, TWEAKR (TNFRSF12A, FN14), human, on …; test: FACS, NCI-H322 cells, 10 ug/ml
[9] = target: T5, TPP-2305 (hTNFRSF12Aaa28-80) (Human, UniProt Q9NP84 28-80); test: SPR (Biacore T100), IgG captured, TPP-2305 injected, 1:1 model
T5 construct: monomeric extracellular domain, bought; also called purified recombinant human TWEAKR protein; soluble monomeric TWEAKR
Procedure: Binding affinities of anti-TWEAKR antibodies were determined by surface plasmon resonance analysis on a Biacore T100 instrument (GE Healthcare Biacore, Inc.). Antibodies were immobilized onto a CM5 sensor chip through an indirect capturing reagent, anti-human IgG(Fc). […] Anti-TWEAKR antibodies were injected at a concentration of 10 μg/ml at 10 μl/min for 10 sec.
Sensorgrams were generated after in-line reference cell correction followed by buffer sample subtraction. The dissociation equilibrium constant (KD) was calculated based on the ratio of association (kₒₙ) and dissociation rated (koff) constants, obtained by fitting sensorgrams with a first order 1:1 binding model.

[10] = target: TPP-1986 (hTNFRSF12Aaa28-80-T33Q-hIgG1-Fc) (human); test: ELISA, TWEAKR-Fc coated 62 ng/ml, biotin-IgG titrated; + means IC50 1 to 150 pM;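 note: biotinylated IgG binding to immobilized TWEAKR-Fc muteins, detected with Streptavidin-HRP and Amplex Red, IC50 derived from fitted dose-response curves of twofold serial dilutions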
Procedure: (§2) To collect dose-response data, the different TWEAKR-Fc muteins were coated with a low concentration (62 ng/ml) in a 384-well Maxisorb ELISA plate and a serial 2fold dilution of biotinylated IgG starting with a concentration of 100 nM was used as soluble binding partner. Detection was done with Streptavidin-HRP and Amplex Red.
(§3) The dose-response data were fitted and IC50s determined.

[11] = target: TPP-1987 (hTNFRSF12Aaa28-80-S40R-hIgG1-Fc) (human); test: as above
Procedure: as §2, §3

[12] = target: TPP-1988 (hTNFRSF12Aaa28-80-M50A-hIgG1-Fc) (human); test: as above
Procedure: as §2, §3

[13] = target: TPP-2683 (hTNFRSF12Aaa28-80-R56P-hIgG1-Fc) (human); test: as above
Procedure: as §2, §3

[14] = target: TPP-1989 (hTNFRSF12Aaa28-80-H60K-hIgG1-Fc) (human); test: as above
Procedure: as §2, §3

[15] = target: TPP-1990 (hTNFRSF12Aaa28-80-L65Q-hIgG1-Fc) (human); test: as above
Procedure: as §2, §3

[16] = target: T6, Trail-R1 (TNFRSF10A) Fc fusion protein (Human, UniProt O00220 24-239); test: ELISA, Fc fusion protein coated at 1 µg/ml, TPP-2090 at 75 nM, Amplex Red;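 note: binding reported as ELISA signal intensity in Rfu against a panel of TNF receptor superfamily members presented as Fc fusion proteins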
T6 construct: extracellular domain; bought

[17] = target: T1, CD95 (TNFRSF6) Fc fusion protein; test: as above
[18] = target: T2, OX40 (TNFRSF4) Fc fusion protein; test: as above
[19] = target: T7, TPP-2202 (TWEAKR-ECD-28-80-hIgGFc-His) (human); test: ELISA, TPP-2202 coated at 1 µg/ml, biotinylated IgG at 0.08 µg/ml (open bar) and 0.3 µg/ml (filled bar), Streptavidin-HRP, Amplex Red
T7 construct: dimeric; also called TWEAKR-Fc fusion protein; full ectodomain 28-80
Procedure: (§4) Detection was done with Streptavidin-HRP and Amplex-Red substrate.
(§5) To analyze for binding, 1 μg/ml of the respective dimeric TWEAKR-Fc construct were coated and, 0.3 μg/ml and 0.08 μg/ml of biotinylated IgG were used as soluble binding partner. Detection was done with Streptavidin-HRP and Amplex-Red substrate.

[20] = target: T3, TPP-1984 (hTNFRSF12Aaa28-68-CT-His); test: ELISA, TPP-1984 coated at 1 µg/ml, biotinylated IgG at 0.08 µg/ml (open bar) and 0.3 µg/ml (filled bar), Streptavidin-HRP, Amplex Red
Procedure: as §4, §5

T7 sequence (chain, as listed by the source limits assumed): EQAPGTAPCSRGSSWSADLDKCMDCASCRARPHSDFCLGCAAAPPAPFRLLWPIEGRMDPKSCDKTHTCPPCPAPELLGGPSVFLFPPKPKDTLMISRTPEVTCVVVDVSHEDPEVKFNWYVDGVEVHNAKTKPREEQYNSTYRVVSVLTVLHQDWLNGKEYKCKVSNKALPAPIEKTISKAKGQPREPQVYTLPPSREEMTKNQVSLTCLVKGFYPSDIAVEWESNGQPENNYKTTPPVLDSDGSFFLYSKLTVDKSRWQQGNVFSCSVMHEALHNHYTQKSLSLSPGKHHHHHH
T6 sequence (O00220 24-239): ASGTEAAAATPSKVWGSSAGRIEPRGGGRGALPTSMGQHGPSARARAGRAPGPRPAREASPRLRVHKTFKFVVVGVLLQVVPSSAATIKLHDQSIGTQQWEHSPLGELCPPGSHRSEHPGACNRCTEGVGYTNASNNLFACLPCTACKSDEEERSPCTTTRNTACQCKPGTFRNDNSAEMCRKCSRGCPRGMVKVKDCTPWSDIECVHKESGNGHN

Row | IL-8 release from A375 cells at 100 ug/ml, % of the activation by 300 ng/ml TWEAK ligand [1] [%] | % Inhibition of proliferation, 786-O cells, 96h, 100 ug/ml [2] [%] | % Inhibition of proliferation, A253 cells, 72h, 100 ug/ml [2] [%] | % Inhibition of proliferation, HT-29 cells, 24h, 100 ug/ml [2] [%] | GeoMean of Fluorescence minus GeoMean with the secondary antibody only [3] | GeoMean of Fluorescence minus GeoMean with the secondary antibody only [4] | GeoMean of Fluorescence minus GeoMean with the secondary antibody only [5] | GeoMean of Fluorescence minus GeoMean with the secondary antibody only [6] | GeoMean of Fluorescence minus GeoMean with the secondary antibody only [7] | GeoMean of Fluorescence minus GeoMean with the secondary antibody only [8] | Kd [9] [nM] | binding result [10] | binding result [11] | binding result [12] | binding result [13] | binding result [14] | binding result [15] | binding result [19] | Binder | also measured
1 | 103 | 71 | 99 | > 100 | 561 | 1420 | 2420 | 20300 | 2870 | 291 | 12.4 | binds | binds | binds | binds | binds | binds | binds | TPP-2090 (antibody, human IgG1, kappa, V domains shown, Human IgG1) VH: EVQLLESGGGLVQPGGSLRLSCAASGFTFSPYPMIWVRQAPGKGLEWVSYISPSGGSTHYADSVKGRFTISRDNSKNTLYLQMNSLRAEDTAVYYCARGGDTYFDYFDYWGQGTLVTVSS VL: DIQMTQSPSSLSASVGDRVTITCRASQSISGYLNWYQQKPGKAPKLLIYQASSLQSGVPSRFSGSGSGTDFTLTISSLQPEDFATYYCQQSYTSPFITFGQGTKVEIKR | binding result [16]: no binding (tested: 75 nM); binding result [17]: no binding (tested: 75 nM); binding result [18]: no binding (tested: 75 nM); binding result [20]: binds
2 | 29 | 29 | 37 | -10 | 1580 | 3670 | 5920 | 30200 | 5970 | 978 | 2.3 | binds | binds | binds | binds | binds | binds | binds | P4A8(TPP-1324) (antibody, human IgG1, kappa, V domains shown, Human IgG1; variable domains from WO2009/140177 with constant region added) VH: QVQLVQSGAEVKKPGASVKVSCKGSGYTFTDYGMHWVRQAPGQGLEWMGVISTYNGYTNYNQKFKGRVTMTVDKSTSTAYMELRSLRSDDTAVYYCARAYYGNLYYAMDYWGQGTLVTVSS VL: DIVLTQSPASLAVSLGQRATISCRASKSVSTSSYSYMHWYQQKPGQPPKLLIKYASNLESGVPARFSGSGSGTDFSLNIHPMEEDDTAMYFCQHSRELPFTFGGGTKLEIKR | % Inhibition of proliferation, WiDr cells, 96h, 100 ug/ml [2]: 4%; koff [9]: 0.0027 s⁻¹; kon [9]: 1.2e+06 M⁻¹ s⁻¹
